The text below walks through data of PMC2646901.

Assay [1] addresses human C5a receptor (C5aR) (human) (UniProt P21730). The assay is described as follows: flow cytometry on cells; kinetics: 300 nM FITC-CHIPS(28-149) added to C5aR-transfected RBL cells, dissociation started with 14 μM unlabelled CHIPS(28-149); Kd from kobs and koff, five experiments. (In general: Flow cytometry measures light scatter and fluorescence of single cells or particles in a stream.)

For assay [2], the target named is formyl peptide receptor (FPR) (UniProt P21462).
Chain of formyl peptide receptor (FPR) (P21462 whole entry): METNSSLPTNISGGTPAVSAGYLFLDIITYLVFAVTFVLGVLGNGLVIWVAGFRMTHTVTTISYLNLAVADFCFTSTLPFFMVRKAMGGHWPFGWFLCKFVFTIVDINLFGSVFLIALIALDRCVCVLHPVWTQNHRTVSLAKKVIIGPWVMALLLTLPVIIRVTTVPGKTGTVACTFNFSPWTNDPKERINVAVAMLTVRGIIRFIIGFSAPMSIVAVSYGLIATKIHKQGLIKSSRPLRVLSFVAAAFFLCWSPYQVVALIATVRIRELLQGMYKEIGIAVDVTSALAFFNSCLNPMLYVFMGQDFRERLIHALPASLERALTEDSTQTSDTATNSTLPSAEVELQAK
The target of assay [3] is human C5a receptor (C5aR) (human) (UniProt P21730).
Chain of human C5a receptor (C5aR) (human) (P21730 whole entry): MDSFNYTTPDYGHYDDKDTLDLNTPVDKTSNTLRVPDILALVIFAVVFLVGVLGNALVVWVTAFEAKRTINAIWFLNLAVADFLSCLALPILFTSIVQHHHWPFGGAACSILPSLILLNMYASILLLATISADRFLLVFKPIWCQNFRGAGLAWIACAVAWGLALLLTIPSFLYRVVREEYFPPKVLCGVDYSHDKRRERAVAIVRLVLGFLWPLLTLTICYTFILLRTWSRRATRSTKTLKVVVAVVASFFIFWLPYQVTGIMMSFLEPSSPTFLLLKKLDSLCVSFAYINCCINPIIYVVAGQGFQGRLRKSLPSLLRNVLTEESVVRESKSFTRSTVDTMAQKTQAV
For assay [4] the target is unchanged. The assay is described as follows: flow cytometry on cells; competition: RBL cells transfected with human C5aR pre-treated with unlabelled CHIPS or human C5a, then 210 nM FITC-rCHIPS(28-149); cell-associated fluorescence.
Assay [5] addresses C5a-like receptor 2 (C5L2), the second C5a receptor (UniProt Q9P296). The experiment in a line: flow cytometry on cells; inhibition of ligand binding: transfected cells co-incubated with rCHIPS(28-149) and His6-C5a (50 nM), His6-C5a des Arg (50 nM) or FITC-formyl peptide (500 nM); 30 min at 4 °C in PBS + 0.1% BSA, 0.2% NaN3; His6 ligands detected with anti-RGSHis6 and anti-mouse IgG-FITC.

Assay [6] addresses human C5a receptor (C5aR) (human) (UniProt P21730). Described as above.

Chain of C5a-like receptor 2 (C5L2), the second C5a receptor (Q9P296 whole entry): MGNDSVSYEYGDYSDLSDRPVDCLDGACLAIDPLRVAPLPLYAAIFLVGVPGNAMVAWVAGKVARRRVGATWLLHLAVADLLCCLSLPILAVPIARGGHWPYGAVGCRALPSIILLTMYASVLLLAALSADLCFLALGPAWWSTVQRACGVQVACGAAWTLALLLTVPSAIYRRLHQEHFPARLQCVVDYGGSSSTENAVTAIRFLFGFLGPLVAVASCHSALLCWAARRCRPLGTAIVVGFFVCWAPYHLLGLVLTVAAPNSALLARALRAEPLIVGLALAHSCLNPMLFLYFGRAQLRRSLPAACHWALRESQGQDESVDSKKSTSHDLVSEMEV

In assay [1], “FITC-labelled recombinant CHIPS_(28–149) (from UniProt A6QIG7 28-149) (domain or fragment)” yielded a t1/2 of association of 10.2 s and a t1/2 of dissociation of 43.8 s.
With “rCHIPS_(30–141) (from UniProt A6QIG7 30-141) (domain or fragment)”, in assay [2], the inhibition of FPR activation by formyl peptide on RBL cells (Schild plot); potency relative to rCHIPS(28-149) amounted to 12 fold.
In turn, “recombinant chemotaxis inhibitory protein of Staphylococcus aureus, residues 28-149 (rCHIPS_(28–149)) (from UniProt A6QIG7 28-149) (domain or fragment)” returned an inhibition of formyl peptide-induced activation of FPR on RBL cells (secretion of β-hexosaminidase) in assay [2] greater than 1 mM. For the same substance, the inhibition of C5a-induced activation of C5aR on RBL cells (secretion of β-hexosaminidase); blocks C5a + C5aR in assay [3] was found to be 2.44 µM. Besides, the IC50 (commonly the point on the concentration scale where inhibition reaches its midpoint) in assay [4] came out at 0.069 µM; in assay [5], 0.274 µM; in assay [6], 0.0067 µM.
